Molecular target: HLA A2.1 molecule (human)
Assay: T2 cells, flow cytometry; P1Y variant against its natural peptide

P1Y variant of gp100 209 (peptide)
DC50 Y1-DC50 WT: 2 h | RA WT/RA Y1: 1.7
